The values below come from article PMC8932414, “Latent TGFβ complexes are transglutaminase cross-linked to fibrillin to facilitate TGFβ activation” (Matrix Biology, 2022).

For the experiment, the target named is T1, CT1-SLC (LTBP1-CT region disulphide bonded to the TGFβ1 small latent complex) (UniProt Q14766 1347-1721; P01137 30-390, disulphide bonded to the SLC).
T1 construct: TGFβ1 small latent complex (proTGFβ1: prodomain LAP and growth factor); also called LTBP1-SLC; truncated version of the LLC; source: HEK293T, co-expressed from pBUD4.1, purified from serum free media (Anti-Flag M2 resin, SEC); not shown: Twin-Strep (chain inferred)
T1 sequence (Q14766 1347-1721, chain 1 of 2): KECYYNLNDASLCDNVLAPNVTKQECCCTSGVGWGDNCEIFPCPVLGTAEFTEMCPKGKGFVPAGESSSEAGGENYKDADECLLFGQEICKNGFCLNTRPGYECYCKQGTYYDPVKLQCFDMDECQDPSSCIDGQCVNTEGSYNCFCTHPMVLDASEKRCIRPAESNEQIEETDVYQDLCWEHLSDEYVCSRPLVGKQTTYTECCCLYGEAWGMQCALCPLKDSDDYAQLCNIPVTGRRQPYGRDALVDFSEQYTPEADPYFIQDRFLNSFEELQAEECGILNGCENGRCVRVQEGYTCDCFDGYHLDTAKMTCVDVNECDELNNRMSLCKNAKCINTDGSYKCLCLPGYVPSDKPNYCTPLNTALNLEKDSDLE
T1 sequence (P01137 30-390, chain 2 of 2): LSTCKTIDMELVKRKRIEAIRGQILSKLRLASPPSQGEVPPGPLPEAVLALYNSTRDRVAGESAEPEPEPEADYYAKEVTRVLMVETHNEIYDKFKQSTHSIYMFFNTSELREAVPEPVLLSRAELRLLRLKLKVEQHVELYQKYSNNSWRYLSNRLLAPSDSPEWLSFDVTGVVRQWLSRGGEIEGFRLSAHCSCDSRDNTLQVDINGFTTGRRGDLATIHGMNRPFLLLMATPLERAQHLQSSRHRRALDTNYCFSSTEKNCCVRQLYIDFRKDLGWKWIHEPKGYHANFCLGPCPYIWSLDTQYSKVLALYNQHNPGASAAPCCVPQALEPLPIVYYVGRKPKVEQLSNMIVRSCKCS
Put plainly: BLI; OctetRED96; biotinylated CT1-SLC on streptavidin biosensors, PF3 100-6.25 nM; 10 mM HEPES, 150 NaCl, pH 7.4, 0.005% Tween-20, 25 °C; 1:1 Langmuir fit. The following applies: both partners purified. (In general: Biolayer interferometry detects binding as a change in optical thickness at a sensor tip.)

B1: fibrillin-1 N-terminal region PF3 (domain or fragment)
chain: not shown
notes: fibrillin-1, N-terminal region called PF3; P35555-1 is printed for the AlphaFold input (115-287); PF1 and PF2 are two over-lapping constructs within this region; not verified; also called fibrillin1-PF3; fibrillin PF3 fragment
What is called Kd is the constant that tells how readily two partners part at equilibrium. A high value points to weaker binding. B1 gave an equilibrium dissociation constant (Kd) of approximately 6 nM.
